According to patent US20090305963A1, “Lipocalin 2 for the Treatment, Prevention, and Management of Cancer Metastasis, Angiogenesis, and Fibrosis” (priority 2005, published 2009):

Assays:
[1] = test system: 4T1 cells injected subcutaneously; assay: In vivo assay for primary tumor growth and pulmonary metastases; parameters: species or system Balb/c mice
Procedure: FIG. 4A is a graph showing the effect of lipocalin 2 on 4T1 primary tumor growth. 4T1 clones (EV, R, and RL) were suspended in PBS and injected subcutaneously in the backs of Balb/c mice. Primary tumor size was calculated based upon measurements at 1, 2, and 3 weeks. […] FIGS. 4E-F show graphs depicting the lung weight (FIG. 4E) and the number of metastatic nodules on the lung surface (FIG. 4F).
10^7 4T1-(EV, R, and RL) cells were injected subcutaneously in Balb/c mice (Asai et al., Int. J. Cancer. 76:418-422, 1998). Though this model is not the standard orthotopic model used, we have used it extensively in our laboratory to study metastases in lung. Primary tumor volume (V)=a·b·b/2, where a represents the […] tumor diameter. After 3 weeks, lung weights and the number of metastatic nodules on the lung surface were evaluated.

VEGF = assay: Measurement of VEGF levels by ELISA in conditioned media of 4T1 cells; assay type: cell-based, mouse; settings: RL vs R cells; conditioned media, 2 days
Procedure: Conditioned media of 4T1 cells were collected after 2 days of incubation. Murine VEGF levels were determined in duplicate using a commercially available sandwich ELISA kit (R&D Systems, Minneapolis, Minn.), with a affinity purified polyclonal antibody specific for mouse VEGF has been pre-coated onto a microplate. Results were compared with a standard curve of mouse VEGF with a lower detection limit of 7 pg/mL. A model 680 microplate-reader (Bio-Rad Laboratories, CA) was used to measure light intensity correlating with VEGF binding.

E-cadherin [2] = assay: EMT phenotype, E-cadherin and vimentin protein in 4T1 clones (microscopy, western blot); assay type: cell-based, mouse; settings: RL cells compared to R cells
Description: (§1) Cells were stained as described previously (Mammoto et al., Cancer Lett. 184:165-170, 2002) and images acquired with a Delta Vision system (Applied Precision, Issaquah, Wash.) equipped with an Axiovert 100 microscope (Carl Zeiss MicroImaging Inc., Shelton, Conn.) and a Photometrics 300 series scientific-grade cooled CCD camera, reading 12-bit images, and using the 63/1.4 NA plan-Neofluar objective. For immunoprecipitation and immunoblotting, tissues were weighed, diced, soaked in ice cold RIPA buffer with 1 mM phenylmethylsulfonyl fluoride (PMSF), 1 μg/ml Aprotinin, 1 mM Na3VO4, 1 nM NaF, homogenized on ice, centrifuged at 10,000 g for 10 minutes at 4° C., and the supernatant fluid collected as total cell lysate. Cultured cells were washed, scraped, and solubilized in a lysis buffer containing 20 mM Tris-HCl pH 7.5, 150 mM NaCl, 0.5% Triton X-100, 1% aprotinin, and 1 mM PMSF. After 20 minutes on ice, the cells were pelleted by centrifugation and the supernatants were used as a cell lysate. Cell lysates or immunoprecipitated cell lysates were separated by PAGE (NuPAGE® gels; Invitrogen, Carlsbad, Calif.), followed by electroblotting onto a polyvinylidenedifluoride membrane (PVDF). Protein bands were detected using SuperSignal® West Pico Chemiluminescent Substrate (Pierce Chemical Co., Rockford, Ill.) (Hanai et al., J. Cell. Biol. 158:529-539, 2002).
To assess the effects of lipocalin 2 on ras-mediated transformation, we chose a syngeneic spontaneously metastasizing murine breast cancer model (4T1 cell line) and accelerated its metastatic potential by introduction of constitutively active mouse H-ras mutant A12 using retrovirus. […] We generated stable clones of 4T1-ras cells expressing lipocalin 2 (RL) by transfection of a lipocalin 2 expression plasmid (lipocalin 2-pcDNA3.1). […] (FIG. 2A, lower panel, and FIG. 2B). […] Expression of E-cadherin in RL cells was dependent on the dose of lipocalin 2-pcDNA3.1 expression vector (transiently introduced in a population of R cells), on a conditioned medium containing lipocalin 2 (FIGS. 2D-E), as well as on recombinant lipocalin 2 protein. R cells shown in FIG. 2D were seeded in a 6-well plate and transfected with lipocalin 2 by FuGene 6 at 40% confluency. After 48 hours, cells were trypsinized, respread on 6-well plate, and transfected again in the same conditions. After 72 hours, cells were harvested and analyzed by western blotting. EV cells in FIG. 2E were seeded in a 6-well plate with 1 ml/well containing 10% FCS with DMEM and 2 ml of CM was added at 10% confluency. After 72 hours, cells were harvested and analyzed by western blotting. CM is a mixture of media from 293T cells transfected with lipocalin 2 and from 293 cells transfected with empty vector (pcDNA3.1).

AKT = assay: Western blot for phospho-AKT; assay type: cell-based, mouse
Description: FIGS. 14A-14B are western blots for phospho-AKT (pAKT) showing the downregulation of ras-induced AKT phosphorylation, but not IGF-1 induced AKT phosphorylation, by lipocalin 2. FIG. 14A is a western blot for pAKT showing the lysate from each 4T1 clone (EV, R and RL). FIG. 14B is a western blot for pAKT showing the lysate from EV or RL cells treated with or without IGF-1. GAPDH serves as a loading control.
as §1, with “Cultured cells were washed, scraped, and solubilized in a lysis buffer containing 20 mM Tris-HCl pH 7.5, 150 mM NaCl, 0.5% Triton X-100, 1% aprotinin, and 1 mM PMSF. After 20 minutes on ice, the cells were pelleted by centrifugation and the supernatants were used as a cell lysate. Cell lysates or immunoprecipitated cell lysates were separated by PAGE (NuPAGE® gels; Invitrogen, Carlsbad, Calif.), followed by electroblotting onto a polyvinylidenedifluoride membrane (PVDF).” left out

caveolin-1 = assay: Western blot of caveolin-1 expression in 4T1 clones; assay type: cell-based, mouse; settings: RL vs R cells
Description: FIGS. 17A-17C show the involvement of caveolin-1 in the MET-inducing and anti-angiogenic function of lipocalin 2.
as §1, with “Cell lysates or immunoprecipitated cell lysates were separated by PAGE (NuPAGE® gels; Invitrogen, Carlsbad, Calif.), followed by electroblotting onto a polyvinylidenedifluoride membrane (PVDF).” left out

E-cadherin [3] = assay: E-cadherin phosphorylation (immunoprecipitation and western blot); assay type: cell-based, mouse; settings: R cells vs RL cells or R cells with inhibitor
Description: as §1

colon cancer cells = settings: ectopic expression of lipocalin 2; cited from earlier work

B1: lipocalin 2: human lipocalin 2 cDNA (HA tagged) in pcDNA3.1, stably expressed in 4T1-ras cells (RL clone); iron-siderophore binding protein (protein, UniProt P80188 21-198, looked up)
Neutrophil …: QDSTSDLIPAPPLSKVPLQQNFQDNQFQGKWYVVGLAGNAILREDKDPQKMYATIYELKEDKSYNVTSVLFRKKKCDYWIRTFVPGCQPGEFTLGNIKSYPGLTSYLVRVVSTNYNQHAMVFFKKVSQNREYFKITLYGRTKELTSELKENFIRFSKSLGLPENHIVFPVPIDQCIDG
modifications: HA tag
**Q.** What does the source list for B1?
**A.** primary tumor size ([1]; R vs RL tumors, 1, 2 and 3 weeks post-inoculation): Primary tumors of R cells were significantly larger than lipocalin 2 cells; reduction of number of metastatic pulmonary nodules ([1]; RL cells compared to R cells, 3 weeks after s.c. injection): 80%; lung weight ([1]; RL compared to R cells, 3 weeks): lung weights were less; suppression of ras-induced VEGF secretion (VEGF): ≈ 7.5 fold; E-cadherin expression (E-cadherin [2]): re-expressed E-cadherin; cell morphology (E-cadherin [2]): reverted to an epithelial morphology; vimentin expression (E-cadherin [2]): suppressed the expression of mesenchymal vimentin; IGF-1-induced phosphorylation of AKT (AKT; EV or RL cells with or without IGF-1): does not downregulate; ras-induced phosphorylation of AKT (AKT; EV, R and RL clones): downregulates; caveolin-1 expression (caveolin-1): rescued this loss of caveolin-1; E-cadherin phosphorylation (E-cadherin [3]): markedly downregulated; liver metastasis (colon cancer cells): inhibited liver metastasis
